Laboratory results published in patent CN117700556A (SUZHOU ABCARTA MEDICAL TECH CO LTD; XIANGYA HOSPITAL …, dated 2024).

Tests used:
FRα抗原(SEQ ID NO:1)合成多肽 = target: T1, FRα抗原(SEQ ID NO:1)合成多肽; test: ELISA screening of hybridoma clones on the SEQ ID NO:1 peptide
T1 construct: KLH-coupled for immunisation; also called FRα的多肽
T1 peptide: RIAWARTELLNV

[1] = target: T2, 叶酸受体α(Folate receptor alpha，FRα) (human, UniProt P15328 25-234); test: immunohistochemistry on FFPE ovarian and breast cancer tissue, antibody at 0.5 μg/mL
T2 construct: whole, on cells; also called FRα蛋白
T2 sequence (P15328 25-234): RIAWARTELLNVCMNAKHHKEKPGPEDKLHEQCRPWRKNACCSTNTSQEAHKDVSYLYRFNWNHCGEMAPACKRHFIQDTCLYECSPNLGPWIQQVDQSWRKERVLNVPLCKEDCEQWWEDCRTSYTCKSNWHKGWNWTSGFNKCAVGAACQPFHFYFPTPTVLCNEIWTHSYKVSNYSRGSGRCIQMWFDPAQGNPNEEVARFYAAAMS

B1: 436I6G8抗FRα小鼠单克隆抗体 (antibody, V domains shown)
VH: EVQLQQSGVELVRSGASVKVSCTPSGFNIKDYFINWVKQRPEQGLEWIGWIDPENGDTEYAPKFQGKATMTADTSSNTAYLQLSSLTSEDTAVYYCYAERVVYWGQGTLITVSA
VL: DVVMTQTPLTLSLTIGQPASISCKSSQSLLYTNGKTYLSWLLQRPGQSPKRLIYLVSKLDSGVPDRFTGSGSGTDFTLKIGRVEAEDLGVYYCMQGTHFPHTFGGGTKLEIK
notes: Variable regions were cloned into InvivoGen pFUSE-CHIg-mG1 and pFUSE2-CLIg-mK (mouse IgG1 heavy, mouse kappa light constant regions); also called 436I6G8克隆的FRα小鼠单克隆抗体; 436I6G8抗FRα单克隆抗体
B1: binds (FRα抗原(SEQ ID NO:1)合成多肽); binds [1].
